Four molecules from article PMC10128069, “A Fijivirus Major Viroplasm Protein Shows RNA-Stimulated ATPase Activity by Adopting Pentameric and Hexameric Assemblies of Dimers” (mBio, 2023) can be followed below.

The target of data set [1] is P9-1 (Mal de Rio Cuarto virus (MRCV)) (UniProt D9U542). Description: competition EMSA. The following applies: 10 mM Tris-HCl, 50 mM KCl, 0.5 mM EDTA, 10% glycerol, 1 mM DTT, pH 7.5; 30 min at room temperature; 6.5% native PAGE at 4 C. Background: Mobility shift assays separate free from complexed probe on a gel.
The data set “crystal structure” concerns the molecule itself. Description: crystal structure.
The data set “SEC-MALS” concerns the molecule itself. Description: SEC-MALS.
The data set “cryo-EM structure” deals with the molecule itself. The data set is described as follows: cryo-EM structure.
The data set “SAXS” deals with the molecule itself. The data set is described as follows: SAXS.
For another data set, the target named is P9-1 (Mal de Rio Cuarto virus (MRCV), UniProt D9U542 1-337). Description: EMSA; 5 uM probe; concentration-dependent, 1, 3, 6 uM protein; 10 mM Tris-HCl, 50 mM KCl, 0.5 mM EDTA, 10% glycerol, 1 mM DTT, pH 7.5; 30 min at room temperature; 6.5% native PAGE at 4 C. Particulars: protein: recombinant; tags: N-terminal 52-residue tag (6xHis/Xpress/EK); label: 5'-HEX; single strand.

The term stoichiometry N denotes a count of units in the complex or per binding partner.

Regarding poly(A), average 250 nt, the binding signal (fold decrease of ssDNA complex) in data set [1] turned out to be 10.

B1: P9-1ΔC-arm (residues 1 to 313 of MRCV P9-1, lacking the 24 C-terminal residues) (domain or fragment)
chain: MADLERRTFGSYKIEEITIKNDQQQKTTNQQQISNNEQRISTKKIPILDDGIFDLINYLLNGTHFDKTHYCGFDYSHLPTLERDFNTASNYVSENYSIIVEEIDLNKYERSESISLKSPDFTVVLEYFKKHVEGQTEQEENKTESTSSELPAKIVRELPLLPIMCRESEDSISEDILEGEGAVIQVLKMFMKGFLVHLGENPNSYDRQLTIEKYRPLLISIIGYEFTVGTRATHTKINHIYYQLATFDNYPFDLLRFQLQSLIDTPNVIKERIEKDGLFKVITTTNARGQYQSVLLRGINGSESYLNLKRYRK
notes: source: E. coli BL21, purified (IMAC on Ni-NTA, SEC on Superdex 200); not shown: His6, N-terminal, kept
Regarding B1, the “stoichiometry N” value in the data set “crystal structure” was 2; in the data set “SEC-MALS”, approximately 2.3 protomers.

B2: P9-1 major viroplasm protein of mal de Río Cuarto virus (MRCV), full-length, expressed in E. coli from pRSET (natural protein)
chain: MADLERRTFGSYKIEEITIKNDQQQKTTNQQQISNNEQRISTKKIPILDDGIFDLINYLLNGTHFDKTHYCGFDYSHLPTLERDFNTASNYVSENYSIIVEEIDLNKYERSESISLKSPDFTVVLEYFKKHVEGQTEQEENKTESTSSELPAKIVRELPLLPIMCRESEDSISEDILEGEGAVIQVLKMFMKGFLVHLGENPNSYDRQLTIEKYRPLLISIIGYEFTVGTRATHTKINHIYYQLATFDNYPFDLLRFQLQSLIDTPNVIKERIEKDGLFKVITTTNARGQYQSVLLRGINGSESYLNLKRYRKFKVRVVGNVDNVIKNDFSSLKLDV
notes: source: E. coli BL21, purified (IMAC on Ni-NTA, SEC on Superdex 200); copies: 10 or 12
Take B2: the “stoichiometry N” value was 12 in “cryo-EM structure”, 10 in the data set “SAXS” and approximately 10.4 protomers in “SEC-MALS”.

In the case of GACCTCGCTCTCTGTTTCTCAT (ssDNA) [22-nt HEX-ssDNA probe], in the data set with P9-1, the binding result is “binds”.
